Residue numbers refer to the chain shown, from its start.
B1: DOM7h-2 (other)
VL: DIQMTQSPSSLSASVGDRVTITCRASQKIATYLNWYQQKPGKAPKLLIYRSSSLQSAVPSRFSGSGSGTVFTLTISSLQPEDFATYYCQQTYAVPPTFGQGTKVEIKR
B2: DOM7h-23 (other)
VH: EVQLLESGGGLVQPGGSLRLSCAASGFTFYDYNMSWVRQAPGKGLEWVSTITHTGGVTYYADSVKGRFTISRDNSKNTLYLQMNSLRAEDTAVYYCAKQNPSYQFDYWGQGTLVTVSS
B3: DOM7h-26 (other)
VH: EVQLLESGGGLVQPGGSLRLSCTASGFTFDEYNMSWVRQAPGKGLEWVSTILPHGDRTYYADSVKGRFTISRDNSKNTLYLQMNSLRAEDTAVYYCAKQDPLYRFDYWGQGTLVTVSS
B4: DOM7r-3 (other)
VL: DIQMTQSPSSLSASVGDRVTITCRASQYIGRYLRWYQQKPGKAPKLLIYDSSVLQSGVPSRFSGSGSGTDFTLTISSLQPEDFATYYCQQRYMQPFTFGQGTKVEIKR
B5: DOM7r-16 (other)
VL: B4 VL with Y28K, G30Y, R31K, Y32N, D50N, V53I, M93L, Q94S, F96Y
B6: DOM7r-27 (other)
VH: EVQLLESGGGLVQPGGSLRLSCAASGFTFWPYTMSWVRQAPGKGLEWVSTISPFGSTTYYADSVKGRFTISRDNSKNTLYLQMNSLRAEDTAVYYCAKSDVLKTGLDGFDYWGQGTLVTVSS
B7: DOM7r-31 (other)
VH: EVQLLESGGGLVQPGGSLRLSCTASGFTFRHYRMGWVRQAPGKGLEWVSWIRPDGTFTYYADSVKGRFTISRDNSKNTLYLQMNSLRAEDTAVYYCAKSYMGDRFDYWGQGTLVTVSS
B8: DOM7r-8 (other)
VL: DIQMTQSPSSLSASVGDRVTITCRASQWIHRQLKWYQQKPGKAPKLLIYYASILQSGVPSRFSGSGSGTDFTLTISSLQPEDFATYYCQQTFSKPSTFGQGTKVEIKR
B9: DOM7r-13 (other)
VL: B8 VL with W28H, Q32E, K34R, Y50Q, I53R, T91K, F92Y, S93L, K94P, S96Y
B10: DOM7r-14 (other)
VL: B4 VL with Y28H, G30H, Y32E, D50Q, S51A, V53R, M93R, Q94V, F96Y
B11: DOM7m-16 (other)
VL: DIQMTQSPSSLSASVGDRVTITCRASQSIIKHLKWYQQKPGKAPKLLIYGASRLQSGVPSRFSGSGSGTDFTLTISSLQPEDFATYYCQQGARWPQTFGQGTKVEIKR
notes: also called MSA16
B12: DOM7m-26 (other)
VL: B11 VL with I30Y, K31Y, G50K, R53T, G91V, A92R, R93K, W94V, Q96R
notes: also called MSA 26
B13: DOM7h-22 (other)
VH: EVQLLESGGGLVQPGGSLRLSCAASGFTFSKYWMSWVRQAPGKGLEWVSSIDFMGPHTYYADSVKGRFTISRDNSKNTLYLQMNSLRAEDTAVYYCAKGRTSMLPMKGKFDYWGQGTLVTVSS
B14: DOM7h-21 (other)
VH: EVQLLESGGGLVQPGGSLRLSCAASGFTFDLYDMSWVRQAPGKGLEWVSSIVNSGVRTYYADSVKGRFTISRDNSKNTLYLQMNSLRAEDTAVYYCAKLNQSYHWDFDYWGQGTLVTVSS
B15: DOM7h-24 (other)
VH: B3 VH with T23A, D30H, E31R, N33S, H54G, R57V, D100T, L102D, R104M
B16: DOM7h-27 (other)
VH: EVQLLESGGGLVQPGGSLRLSCAASGFTFSDYRMSWVRQAPGKGLEWVSTIISNGKFTYYADSVKGRFTISRDNSKNTLYLQMNSLRAEDTAVYYCAKQDWMYMFDYWGQGTLVTVSS
B17: DOM7h-25 (other)
VH: EVQLLESGGGLVQPGGSLRLSCAASGFTFWKYNMAWVRQAPGKGLEWVSTILGEGNNTYYADSVKGRFTISRDNSKNTLYLQMNSLRAEDTAVYYCAKTMDYKFDYWGQGTLVTVSS
B18: DOM7r-7 (other)
VL: B4 VL with M93S, Q94S, F96Y
B19: DOM7r-4 (other)
VL: B4 VL with Y28W, D50N, S51G, V53Q, M93L, F96Y
B20: DOM7r-5 (other)
VL: B4 VL with G30S, Y32Q, K45R, D50G, S51A, V58I, M93I, Q94T, F96Y, I106V
B21: DOM7h-6 (other)
VL: B1 VL with K28S, A30S, T31S, K45T, S51L, S53V, A57G, V70D, A93N
B22: DOM7h-3 (other)
VL: DIQMTQSPSSLSASVGDRVTITCRASQWIDTGLAWYQQKPGKAPRLLIYNVSRLQSGVPSRFSGSGSGTDFTLTISSLQPEDFATYYCQQYWGSPTTFGQGTKVEIKR
B23: DOM7h-4 (other)
VL: DIQMTQSPSSLSASVGDRVTITCRASQEIYSWLAWYQQRPGKAPKLLIYNASHLQSGVPSRFSGSGSGTDFTLTISSLQPEDFATYYCQQVIGDPVTFGQGTKVEIKR
B24: DOM7r-17 (other)
VL: DIQMTQSPSSLSASVGDRVTITCRASQKIYNNLRWYQQKPGKAPKLLIYNTSILQSGVPSRFSGSGSGTDFTLTISSLQPEDFATYYCQQRWRAPYTFGQGTKVEIKR
B25: DOM7r-18 (other)
VL: DIQMTQSPSSLSASVGDRVTITCRASQWIYKSLGWYQQKPGKAPKLLIYQSSLLQSGVPSRFSGSGSGTDFTLTISSLQPEDFATYYCQQYHQMPRTFGQGTKVEIKR
B26: DOM7r-19 (other)
VL: B8 VL with H30Y, Q32H, K34R, Y50D, I53R, S60T, F92H, S93N, K94P, S96K
B27: DOM7r-15 (other)
VL: DIQMTQSPSSLSASVGDRVTITCRASQSIGRRLKWYQQKPGAAPRLLIYRTSWLQSGVPSRFSGSGSGTDFTLTISSLQPEDFATYYCQQTSQWPHTFGQGTKVEIKR

The binders below were run against T1, human serum albumin (human, UniProt P02768 25-609) (assay: BIACORE SPR, albumin on a CM5 chip, dAb in solution).
T1 construct: also called HSA; HAS
Protocol: (§1) dAbs that bound serum albumin on a BIACORE chip (Biacore AB) were then further analysed to obtain information on affinity. The analysis was performed using a CM5 chip (carboxymethylated dextran matrix) that was coated with serum albumin. Flow cell 1 was an uncoated, blocked negative control, flow cell 2 was coated with HSA, flow cell 3 was coated with RSA and flow cell 4 was coated with MSA. The serum albumins were immobilised in acetate buffer pH 5.5 using the BIACORE coating wizard which was programmed to aim for 500 resonance units (RUs) of coated material. Each dAb of interest was expressed in the periplasm of E. coli on a 200 mL-500 mL scale and purified from the supernatant using batch absorption to protein A-streamline affinity resin (Amersham, UK) for the VH_{^S} and to protein L-agarose affinity resin (Affitech, Norway) for the Vκs followed by elution with glycine at pH 2.2 and buffer exchange to PBS. A range of concentrations of dAb were prepared (in the range 5 nM to 5 μM) by dilution into BIACORE HBS-EP buffer and flowed across the BIACORE chip.

| Binder | Kd [nM] |
| --- | --- |
| B1 | 10 to 100 |
| B2 | 500 to 5000 |
| B3 | 100 to 500 |

What follows are binders tested against T2, rat serum albumin (rat, UniProt P02770 25-608) (assay: affinity (KD) for rat serum albumin; method not stated in the table (BIACORE SPR in Example 1)).
T2 construct: also called RSA

| Binder | Kd [nM] |
| --- | --- |
| B4 | 12 |
| B5 | 1000 |
| B6 | 250 |
| B7 | 5000 |

Each binder was assayed against T1, human serum albumin (assay: table of affinities (KD); BIACORE on serum albumin-coated chip according to Example 1;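 also: surface plasmon resonance with dAbs flowed over a chip carrying human, rat or mouse serum albumin, blocked uncoated flow cell as reference, KD from on- and off-rate curve fits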).
Protocol: as §1

| Binder | Kd [nM] | binding result |
| --- | --- | --- |
| B1 | 70 |  |
| B4 |  | no binding |
| B8 |  | no binding |
| B9 |  | no binding |
| B10 |  | no binding |
| B5 |  | no binding |
| B11 | > 5000 |  |
| B12 | > 5000 |  |
| B6 |  | no binding |
| B13 | 60 |  |
| B2 | 900 |  |
| B3 | 300 |  |

These binders were tested against T2, rat serum albumin in the same assay as above.
Protocol: as §1

| Binder | Kd [nM] | binding result |
| --- | --- | --- |
| B1 | > 5000 |  |
| B8 | 20 |  |
| B9 | 80 |  |
| B10 | 50 |  |
| B13 |  | no binding |
| B2 |  | no binding |
| B3 |  | no binding |

These binders were tested against T3, mouse serum albumin (mouse, UniProt P07724 25-608) in the same assay as above.
T3 construct: also called MSA
Protocol: as §1

| Binder | Kd [nM] | binding result |
| --- | --- | --- |
| B1 | > 5000 |  |
| B4 | > 5000 |  |
| B8 | 40 |  |
| B5 | 1000 |  |
| B11 | 50 |  |
| B12 | 60 |  |
| B6 | 250 |  |
| B7 | 1000 |  |
| B13 |  | no binding |
| B2 |  | no binding |
| B3 |  | no binding |

Each binder was assayed against T1, human serum albumin (assay: BIACORE SPR screen, column 'Biacore binding').
Description: (§2) If a significant proportion of the clones in one of the selections were positive in the phage ELISA, then DNA from this selection was cloned into an expression vector for production of soluble dAb, and individual colonies were picked. […] Clones were then sequenced and unique dAb sequences identified.

| Binder | binding result |
| --- | --- |
| B14 | binds |
| B15 | binds |
| B16 | binds |
| B17 | binds |

What follows are binders tested against T2, rat serum albumin (assay: BIACORE SPR screen, column 'Biacore binding').
Description: as §2

| Binder | binding result |
| --- | --- |
| B18 | binds |
| B19 | binds |
| B20 | binds |

The binders below were run against T3, mouse serum albumin (assay: BIACORE SPR screen, column 'Biacore binding').
Description: as §2

| Binder | binding result |
| --- | --- |
| B18 | binds |
| B19 | binds |

These binders were tested against T1, human serum albumin (assay: phage display selection on albumin (figure legend)).

| Binder | binding result |
| --- | --- |
| B21 | binds |
| B22 | binds |
| B23 | binds |

What follows are binders tested against T2, rat serum albumin (assay: phage display selection on albumin (figure legend)).

| Binder | binding result |
| --- | --- |
| B24 | binds |
| B25 | binds |
| B26 | binds |
| B27 | binds |

What follows are binders tested against T1, human serum albumin (assay: table of affinities (KD); BIACORE on serum albumin-coated chip according to Example 1; '+' = detectable binding but weak (estimated KD > 5 µM)).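 As to result: surface plasmon resonance with dAbs flowed over a chip carrying human, rat or mouse serum albumin, blocked uncoated flow cell as reference, KD from on- and off-rate curve fits.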
Protocol: as §1

| Binder | Kd [nM] |
| --- | --- |
| B7 | ~10000 |

Source: patent publication US20090111745A1 (DOMANTIS, published 2009)
